Results reported in the DeepSol protein solubility set.

Experiment: soluble on expression in E. coli; label from the status in PepcDB or PDB records

Sequence	soluble on expression in E. coli
MGSDKIHHHHHHMQINNKIIISCSIIASLVSQTTYAQINTGTTSNKLTAFIHAELIIAPGKRLSDATLLVGNNRIKAIIEHGDIPAGAFKIDLSGYTIYPGFIDPFTDYGIEFEYPKLGLTRPVYGIKRIGGNADNGAIHSEKEWFNYVYPNKERAKEWINNGFTSVQSSKLDGIFRGTGVSLSLADKTANEVIYRARSQPFMAFDKGSSEQDYPSSLMGSIALIRPRIQIISATLGQNGEEGVSC	not soluble
MSLQDIYGTLANLNTKLKQKLSHPYLAKHISAPKIDEDKLLLFHALFEEADIKNNDRENYIVTAMLVQSALDTHDEVTTARVIKRDENKNRQLTVLAGDYFSGLYYSLLSEMKDIYMIRTLATAIKEINEHKIRLYDRSFKDENDFFESVGIVESALFHRVAEHFNLPRWKKLSSDFFVFKRLMNGNDAFLDVIGSFIQLGKTKEEILEDCFKKAKNSIESLLPLNSPIQNILINRLKTISQDQTYHQKVEEGEGHHHHHH	soluble
MSYPMTPVKRPTISHGIQASDGIIKRPIEGNKKRLSAPIKDKPEHRIAPEEITNAPTTSRLRRAPEFDVVVIMKTTKKDRKKIIQTPRRRSIKLANVPMTPKTAPIRRHSTGGNAAMSTPKRRKSFGSLAPVRQHRVETRKVVRNLMAVRPPLCF	soluble
PKYQSTAALLVNRSQDDTAATALNDQQADVGLIYTYKDLITRPVILNKVAKELKSTYPTLTSTALAKMITVSSTTNSQIFSIAVRSTSSQEAKDIANETASVFKNEAVKLMGKTISNVTIVSSGLKNNTPVFPNTK	not soluble
GMDMKKHGLSIGINRIESVFFVTLKAIGTLTHEDYLVITPMLEGALSQVDQPKVSLFLDATELDGWDLRAAWDDLKLGLKHKSEFERVAILGNKDWQEWAAKIGSWFIAGEIKYFEDEDDALKWLRY	soluble
MGSDKIHHHHHHMIIDAHIHCSGDEKVDDVLQALDQAQVDKAVVLAPFLSGPYSMHDSASLRSANQYLSRLIGHHTDRLIGFAVINPSLEGACQDLVSAHELGLHGLKMVPAGWYPYDDCARDVYETAARLKIPILFHSGIFIDGKSGRFCRPSFYEAIRDYPDLRVTLAHLGWPWSDEANAVGLIDLINGVPPDNSQFRFDISFGAPPVYRLEVLRKAIDVLTPDLLQFGSDVFLPCSADLIKSRIDEVLMLLERLEVDKSSRDRIMGGTAAAWLGIN	not soluble
MSLSILNSLKNIAFIGFYFIFAVNKMSRADEGRLIHLAKKREREKEDIEQQLRKLEEDKEKCRVGITNKFMANYETVEEVVKSKTYGLVSLDDMKNIQKNEISNRDLQVARGDQSSSTQSKDSQEAREKEEHVAKHTQKRFLSFAFDDEEDEEDAAPIIPKKRVGMDPTVDTSFLPDKEREEFLRKKKESLAAEWRVKQDAEKNEEITVAYAYWDGSSHRKNMKIKKGNTISQCLGRAIEALKKEFTELKSCTAENLMFVKEDLIIPHFYTFQDFIVTKAMGKTGPLFVFDSASDVRIRQDAALDYGESHPAKIVLRSWYEKNKHIYPASRWEPFVPSKKYGRNFDDLSDL	not soluble
MNCEKCNQNPATIQLYMNINGKRVEMPLCASCYAEVRNQANFGSNEFPGASGSPFDDIFRQLSGAANQANREQRSQANAQVQTQTAGGGNGILDEFGTNLTDMAKNEQLDPVIGRDKEIKRVIEILNRRNKNNPVLIGEPGVGKTAVVEGLANAIVAGDVPSKLMNKEVILLDVASLVSGTGIRGQFEERMKQLIKELQERKNTILFIDEVHTIVGAGSAEGSMDAGNILKPALARGDLQMIGATTLKEYRTIEKDAALERRFQPVTVSEPSTKETLTILNGLKPKYEDFHEVVYSPEALTAAVELSARYIQDRHLPDKAIDLMDEVGSKYNLSIEKLDENTVSERVARLEDEKNQALQMEDYEKAAKVRDEITRLEENKTSNSFSERPVIQASDIQAIIEEKTGIPVGRLQEDEQSKMKNLERNLTGKVIGQEDAVKKVAKAIRRSRVGLKSKNRPIGSFLFVGPTGVGKTELGRTLARELFGTSEAMIRLDMSEFMEKHSISKLIGSPPGYVGHEEAGQLTEKVRRNPYSIILLDEIEKAHPDVQHMFLQILEDGRLTDSQGRTVSFKDTVIIMTSNAGATDTEASVGFNTTTETKLEKGSDILAKLGAYFKPEFLNRLDSVIEFKSLEKDDLVQIIDLMLVDLNEMLAQEGVTIDVSKEVKEHLIDLGYDPKFGARPLRRTIQEHLEDTIADSLIDQPEAKNLVATLNDNKEITITEQVTA	not soluble
GPGSMSHSALAYAACPMCTRVVHMGQMLHHILSTHKEQDPAYWMRLCNARLALYERVTGAPLEGTETMRDACLAQATAAVAEAADSEAMVPGGLSLSTPLSTHDALRPFLPTVSETGTYTCNWCALRSVAFSSRDAFLLHVAKDHPKLDFDVVESLVPQPLTVSSRAARNEGTGTPAPRAPAAESDVTVSDSWTRQQRGGAGCVGAASNSHAAEGFDVAYPVRRMPGVRTVQDTNVVTVKPEVHQLGTSVGRVGRNAFDPAPISTGGRRSRAAVSASSTASATAVANDLHFDKDCFPCELCFRVFVSELNLLQHLESKHTNPTTLASVSDASVERAAPPGTASASSTAAASPSSVEVFVVCDRCTDRKKVFRSSSALFSHIRFRHPAEDAAYETERMIEEQRQSRVFQCPHCRYRHPDMTRLDTHMRDAHGVVGCAGEKTIRGGRVVSGTAQPHGSAELKTAQPSLFSALPPVTVRTRFWCSVCEKGFANASALYAHTESKHTTIASLYPCPACKREFRDVPSLESHVQLCHKNLSLKDMGLQSSVECPDCLRHFLNYESLHDHAVRHHGKSAIAPVRSFVTPVSASTAGEGVGVAAAVPVPGTSTDASGSTTSPLAVAAPPKPRKVTRRKKEPSTAATES	not soluble
GMGISNIKQLYSKWKSLQPLKPEDLKRWNDKFKLEFNYNSNHLEGNTLTYGQTKLLLMFGETSGNASLKDYEEMKAHNVGLEMIKQEAQDKERPLTESFIRELNRTILVQDYWKNAKTPDGQDIRMQIKVGEYKSRPNSVLTATGEVFSYASPEETPAFMTSLVDWYNLEADKGILTPVELAALLHYRYIRIHPFEDGNGRIARLLVNFVLHRYGYPMIVIHSEDKSNYLNILHQCDVEAGLTPSDGANATLNDILPFVNYLSSCLIRSLTLAIKAAKGESIEEEGDFDKK	soluble
MMTQVTESAVRSALSRVEDPEIGKPITELGMVKSVSIDGSDVQVEVYLTIAACPMKTTIVTNTEAALKDIDGVGQVHVTTDVMSDEQRRALRVSLRGETSEPVIPFAQPGSTTRVYAVASGKGGVGKSSMTVNLAAALAKRGLSVGILDADIYGHSVPGMLGSDQRPHQVDDMIMPPQAHGVKMISIAHFTEGNAPVVWRGPMLHRAIQQFLTDVFWGDLDILLLDLPPGTGDIAITVAQLIPNAELLIVTTPQAAAAEVAERAGTISVQTNQKVAGVIENMSAMVLPDGTTMDVFGTGGGQKIADRLTAVTGEEVKVIGSVPLDPNLRIGGDVGNPIAISEPHSPTAAAINEIAEHLAHRKVSLVGKTLGLGVKLEHHHHHH	soluble
GPGSMLAQCSLFVQPRVFKGLVMRSHAPVACWAASLPWMTQQQRRRSSFASATPAAPSTDAGKGNYFHFFRIAKHPDLDVAALQKKYHNLQRLVHPDQQQVQAQQQQAEAADVAPATSSSPLPFACTSNEAKSSTDVSTYANAAYETLRAPYSRCRYLSRLVKAEEVKGNPLSAAEEEELLVEDDQRTMKAREVRPDAPMSDDFLMEMLAMNELIFAGDSSDEGVRQQWSVLRFDLEDRAVGYFKDAIKSWNDGDMGAFHHIVHEWTYVATALNNLKERMLE	not soluble
MPIDAMSDRNHAFASDEPPEIQVHPHDRYHAVIKKCASLPPLVTAVVHPVDSQVLSAVSDAVMEKLITPLLVGPAGRIEKAADEAGIDLSKWQVIDTPHSHAAAEKAVELAAAREVGAIMKGSLHTDELLGPIVARGSGLRTGRRLSHAYVMDTAGYHKWLIVTDAVVNISPDLCAKADICRNAVDAWVALTGESCLPKIAVLAAVEVVNAAMQATLDAAALCKMAERGQITGCIIDGPLAFDNAISRQAAKEKHIVSQVAGDADILLAPDIEAGNILAKQLTFISHADAAGVVMGAKVPVILTSRADNLRTRLLSCALAVLVQRAKEEGRIK	soluble
RQLTVLERVAPTITGNLENQTTSIGESIEVSCTASGNPPPQIMWFKDNETLVEDSGIVLKDGNRNLTIRRVRKEDEGLYTCQACSVLGCAKVEAFFIIEGAQEKTNLE	soluble
MSLKEGAWGIIGVPFDSTTSYHPGSRFGPIVVREASYGFEKYNTIFNTQLDNIFYDFGDVNVVFGNCKKTCDIIEDTVNELSDLKIKPLTIGGEHSLTIGVLNSLTKKYDDLTVVHLDAHRDLADTFIGELYSHASVMKRVHEMGVKELVQIGIRSASKEEEDFVKNQSNITTFKNNDVFHHLDNIEYYLSIIDTPIYLSIDMDVFDPSIAPTVGNPTPNGIAYGHIEAMLQTLSLKNVVGMDVVETAGDRLGDITAVSASKIIYDFLSLLEGHHHHHH	not soluble
LSGLTRPQEGTDEVTDAHASACLAALERGFDAEWGGFGGEPKFPRPAVLSFLFSHAVATGNRHALDMALLTLRKMAAGGIHDHLGVAGLGGGGFARYSTDRFWHVPHFEKMLYDNAQLAASYLEAYQASGDELFANTARDIFHYVLCDMTSPEGAFWSAEDADSLDPYGSGEKREGAFYLWTEQEITGLLDPEEATLFIATYGIRSDGNAPFDPHGEFTGKNILIRTMSDNELAGTFEIPIETVGKRLNSARKKLFEARKKRPRPGLDDKILTSWNGLMLSALAKGSLVLGDTTLLEAAERAARFILDTLCDSKSGKLLRRYRDGQAAIEGKAADYACLILGLLDLYSASFDSDWLRAAIKLAEAQIERFFDQEAGVFYSTAVEDHSVPLR	not soluble
GSESKCPEELANYCDMLLRKTPLSKKLTSEEIEAKLKEVLKKLKYVQNKDVFMRYHKAHLTRRLILDISADSEIEENMVEWLREVGMPADYVNKLARMFQDIKVSEDLNQAFKEMHKNNKLALPADSVNIKILNAGAWSRSSEKVFVSLPTELEDLIPEVEEFYKKNHSGRKLHWHHLMSNGIITFKNEVGQYDLEVTTFQLAVLFAWNQRPREKISFENLKLATELPDAELRRTLWSLVAFPKLKRQVLLYEPQVNSPKDFTEGTLFSVNQEFSLIKNAKVQKRGKINLIGRLQLTTERMREEENEGIVQLRILRTQEAIIQIMKMRKKISNAQLQTELVEILKNMFLPQKKMIKEQIEWLIEHKYIRRDESDINTFIYMA	soluble
METTGDKAFYFLLKNCGHSLKFVDLRNSKRLHGRSFKLFGSQLESLYLDGSSKVDEMAFEDLCTSCGGLKELRINECYKITDENLSMIARRMEDLSILTLCGDGFKSLTSAGLIHISHMRNITELALDYNALVNDELLISISAGLPLLSSLSLANAGNDSSITAEGVSAIKNLKELTQLDASSLAAVNSKVLEQLGSLKKLEIIQLRNCTYLGDDGVRAKLRMPNIRHVDLSGSILVSNDSIQQFIKAFPSGPKLPPITLVVGGTAADASKLSVRGSRVVVDFSDYSTIVTMQTSQCSSSKFAIGGSASDAEGSDDEFEALTAQRSFYIDAVCGEEESPITDDGKLAEWAEKEARSLGLIKD	not soluble
MSLRKRPDSVTPDLLHVDRSAMGPLAERMRPRTLDDMVGQKRLLAPDSALRRAVESGRVHSMILWGPPGCGKTTLALLLAHYADAEFNAISAVLSGLPEVRQVLAEAAQRFAGGRRTVLFVDEVHRFNKAQQDAFLPHIERGTILFVGATTENPSFELNSALLSRCRVHVLEGVSPQDIVEALQRALHDAERGLGQQTIQVSEASLLEIASAADGDVRRALTLLEIAAELATGEGGEITPRTLLQVLADRTRRFDKNGEQFYDQISALHKSVRSSNPDAALYWLTRMLDGGCDPTYLARRLTRMAIEDIGLADPRAQGMALEAWDIYERLGSPEGELAFAQLVLYLASTAKSNAGYAAFNQARAEVRATGTQEVPLHLRNAPTKLMKTLGYGQDYQYDHDAEGGIALDQTGFPDAMGERVYYNPMPRGMEIKLKEKLDRLRETRGQAREGHHHHHH	soluble
